Measured values from patent US11161912B2, “Heparanase-neutralizing monoclonal antibodies” (Technion Research & Development Foundation Limited, priority 2015, dated 2021).

How the values were obtained:
Cal-27 tongue carcinoma = test: Matrigel cell invasion, Cal-27 tongue carcinoma cells; assay type: cell-based, human; details: Cal-27 cells, mAb 2 μg, 6 h
Protocol: Cell invasion. Matrigel invasion assay was performed using modified Boyden chambers with polycarbonate Nucleopore membrane (Corning, Corning, N.Y.), essentially as described (17). Briefly, filters (6.5 mm in diameter, 8 μm pore-size) were coated with Matrigel (30 μl); Cells (2×10^5) in 100 μl of serum-free medium were seeded in triplicate on the upper part of each chamber, and the lower compartment was filled with 600 μl medium supplemented with 10% FCS. After incubation for 5 h at 37° C. in a 5% CO2 incubator, non-invading cells on the upper surface of the filter were wiped with a cotton swab, and migrated cells on the lower surface of the filter were fixed, stained with 0.5% crystal violet (Sigma) and counted by examination of at least seven microscopic fields.
FIG. 5A. Cell invasion. Cal-27 tongue carcinoma (left panels) and U87 glioma cells (right panels) (2×10^5) were plated onto Matrigel-coated filters in the presence of mouse IgM/IgG (upper panels), mAb 9E8 (2 μg; second left and middle panels). Invading cells adhering to the lower side of the membrane were visualized after 6 h. […] Lungs were harvested after 18 days, photographed (lower panel) and the number of metastatic lesions was counted (upper panel; p=0.001, 0.0006, 0.0001 for Con vs. Ab 1453, Con vs. mAb 9E8 and Con vs. SST0001, respectively). […]

Raji-luciferase cells = test: Raji-luciferase lymphoma, tail vein inoculation, bone marrow growth by IVIS imaging; assay type: in vivo, human; details: mAb 600 μg/mouse every other day, IVIS
Protocol: Tumorigenicity. Luciferase-labelled CAG myeloma (5×10^6) or Raji lymphoma (1×10^6) cells were injected into the tail vein of NOD/SCID mice (n=5). Mice were treated with PG545 (20 mg/kg, once weekly), mAb 9E8 (600 μg/mouse) every other day starting one day following cell inoculation and tumor growth was examined by IVIS imaging. At termination, mice were sacrificed, the backbones were excised, fixed in formalin and following de-calcification with 10% EDTA solution were embedded in paraffin and subjected to histological and immunohistochemical analyses essentially as described (Weissmann et al, 2016, Proc Natl Acad Sci USA 113:704-709). Dose of 25-30 mg/kg (i.e., 500-600 μg mAb/mouse) is typical in cancer restraining experiments (Van Looy T, et al. 2015, Transl Oncol 8(2):112-118).
IVIS imaging. Bioluminescent imaging of the luciferase-expressing tumors was performed with a highly sensitive, cooled charge coupled device (CCD) camera mounted in a light-tight specimen box (IVIS; Xenogen Corp., Waltham, Mass.). Briefly, mice were injected intraperitoneally with D-luciferin substrate at 150 mg/kg, anesthetized and placed onto a stage inside the light-tight camera box, with continuous exposure to isoflurane (EZAnesthesia, Palmer, Pa.). Light emitted from the bioluminescent cells was detected by the IVIS camera system with images quantified for tumor burden using a log-scale color range set at 5×10^4 to 1×10^7 and measurement of total photon counts per second (PPS) using Living Image software (Xenogen) (Weissmann et al, 2016, Proc Natl Acad Sci USA 113:704-709).
FIG. 4A. Raji-luciferase cells (1×10^6) were injected into the tail vein of NOD/SCID mice (n=5). Mice were treated with PG545 (20 mg/kg once a week) starting one day after cell inoculation and IVIS imaging was applied to quantify tumor load. […] NOD/SCID mice (n=5) were inoculated (iv) with Raji-luciferase cells and mice were treated with mAb 9E8 (600 μg/mouse every other day) (FIG. 4C) and tumor growth was evaluated by IVIS imaging (left panels). Quantification of luciferase signals is shown graphically in the right lower panel.

[1] = test system: LM2-4 human breast carcinoma cells; test: LM2-4 breast carcinoma experimental lung metastasis; assay type: in vivo; details: mAb 500 μg/mouse with the cells, lungs after 18 days
Protocol: Experimental metastasis. B16 BL6 mouse melanoma (2×10^5) or LM2-4 human breast cancer cells (2×10^6) were injected into the tail vein of C57/BL mice or SCID/Beige mice (respectively) together with the indicated compound, essentially as described (Hostettler N, et al. 2007, FASEB J 21(13):3562-3572). Lungs were harvested 18 days thereafter and metastases occurrence was determined following fixation by gross inspection and histology (Weissmann et al, 2016, Proc Natl Acad Sci USA 113:704-709).
FIG. 5A. Cell invasion. Cal-27 tongue carcinoma (left panels) and U87 glioma cells (right panels) (2×10^5) were plated onto Matrigel-coated filters in the presence of mouse IgM/IgG (upper panels), mAb 9E8 (2 μg; second left and middle panels). Invading cells adhering to the lower side of the membrane were visualized after 6 h. The number of invading cells per high power field is shown graphically at the lower panels. FIG. 5B, FIG. 5C. Tumor metastasis. FIG. 5B Mouse B16 melanoma cells (2×10^5) were inoculated into the tail vein of C57Bl/6 mice (n=7) together with rabbit IgG (300 μg; Con), Ab #1453 (250 μg), mAb 9E8 (500 μg) or SST0001 (400 μg). Lungs were harvested after 18 days, photographed (lower panel) and the number of metastatic lesions was counted (upper panel; p=0.001, 0.0006, 0.0001 for Con vs. Ab 1453, Con vs. mAb 9E8 and Con vs. SST0001, respectively). […]

B1: mAb 9E8: monoclonal IgM raised against KKDC peptide (Lys158-Asn171) of heparanase; VH SEQ ID NO: 7, VL SEQ ID NO: 8 (antibody)
VH: EVKLLESGGGLVQPGGSLKLSCAASGFDFSRYWMSWVRQAPGKGLEWIGEINPDSSTINYTPSLKDKFIISRDNAKNTLYLQMSKVRSEDTALYYCARRGYEGNYAMDYWGQGTSVTVSSESQSFPNVFPLVSCESPLSDKNLVAMGCLAR
VL: DIVMTQAAPSVPVTPGESVSISCRSSKSLLHSNGNTYLYWFLQRPGQSPQLLIYRMSNLASGVPDRFSGSGSGTAFTLRISRVEAEDVGVYYCMQHLEYPFTFGSGTKLEIKRADAAPTVSIFPPSSEQLTSGGASVVCFL
modifications: IgM constant regions
B1 was tested, and the cell invasion (Cal-27 tongue carcinoma) was “inhibitory effect”, the “decrease of Raji cell growth (luciferase signal)” value (Raji-luciferase cells) was 2-3 fold and the experimental lung metastasis [1] was “inhibitory effect”.
